The assay concerns the target CXCR6 (Homo sapiens, UniProt O00574). Nature of the assay: Arrestin agonist mode. To be noted: read-out: RC50 (the source's name). The assay is classed as cell-based.

Drawing on patent US20260184748A1, “COMPOSITIONS COMPRISING OCTADECANEUROPEPTIDES (ODN) AND SYNTHETIC DERIVATIVES THEREOF AND METHODS OF USE FOR MODULATION OF FOOD INTAKE, OBESITY, BODY WEIGHT, NAUSEA, AND EMESIS” (The Trustees of the University of Pennsylvania, priority 2022, published 2026), this text covers EC50 for one molecule.

Chain of CXCR6 (O00574 whole entry): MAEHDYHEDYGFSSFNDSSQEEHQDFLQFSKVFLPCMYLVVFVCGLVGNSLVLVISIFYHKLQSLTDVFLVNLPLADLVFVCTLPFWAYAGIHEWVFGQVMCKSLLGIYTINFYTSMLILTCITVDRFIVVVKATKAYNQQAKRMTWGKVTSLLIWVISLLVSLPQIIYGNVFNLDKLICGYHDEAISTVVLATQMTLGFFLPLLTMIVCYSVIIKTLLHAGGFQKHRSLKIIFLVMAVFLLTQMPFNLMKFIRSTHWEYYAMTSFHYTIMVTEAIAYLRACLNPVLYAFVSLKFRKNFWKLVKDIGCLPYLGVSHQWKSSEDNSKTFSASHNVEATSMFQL

B1: CXCL16: control agonist (protein)
chain: NEGSVTGSCYCGKRISSDSPPSVQFMNRLRKHLRAYHRCLYYTRFQLLSWSVCGGNKDPWVQELMSCLDLKECGHAYSGIVAHQKHLLP
As for B1, the EC50 was 6.81 nM.
